# Data as given in the supplement of paper PMC10567573.
# ± gives the standard deviation.
# Experiment: protein stability index of a GFP-peptide fusion (GPS, HEK-293T) (PSI 1-6); higher = more stable
# Settings: c terminus: a fixed tail appended
# 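Also: 24-mer peptide tiles fused after GFP, lentivirally expressed, FACS-sorted into six equal bins by GFP/DsRed ratio, decoded by Illumina sequencing, PSI is the read-weighted mean bin number.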
Sequence,protein stability index (treatment: DMSO),"protein stability index (treatment: MLN4924 1 uM, 8 h)"
YQQLCIYWTKYYDFKNPIIEKYLR [OAS1],2.92 ± 0.53,2.46 ± 0.7
YQSYFKTIEELQQKILCAKAENAR [KRT34],2.46 ± 0.33,2.86 ± 0.5
YQYIQSRFYRSPEVLLGTPYDLAI [DYRK1B],2.18 ± 0.41,2.29 ± 0.35
YRKQNAYIATQGSLPETFGDFWRM [PTPRD],2.54 ± 0.39,2.12 ± 0.08
YSSEMKTEDELRVRHLEEENRGIV [AUH],4.78 ± 1,5.35 ± 0.86
YSYASTHRLMTDARRRVCHTEDFQ [CPXM2],2.91 ± 0.37,3.44 ± 0.36
YSYMSPNKCSGMRFPLQEENSVTH [KMT5A],3.35 ± 0.25,3.14 ± 0.1
YSYVYQDGLRLLGARARGVAMLGV [SOAT2],2.55 ± 0.59,2.25 ± 0.21
YVATEAILIALVGATPSYHWDLAE [SLC22A15],3.01 ± 0.39,3.27 ± 0.31
YVRLVCKDVRAPSRPAVGPPQPGC [ZSWIM9],2.22 ± 0.23,2.4 ± 0.27
YYFIMACDQYSCALTGPVVDIVTG [DHCR7],3.35 ± 0.17,3.26 ± 0.53
YYYTKVMSELFLHTPSDTGVSFQA [PKD2L1],2.74 ± 0.59,2.67 ± 0.64
